test: soluble on expression in E. coli; label from the status in PepcDB or PDB records

Row | Sequence | soluble on expression in E. coli
1 | MGSDKIHHHHHHMLELTPNLNMNSKKALYVQLYEYIKKEIKDGTIVPFTKLPAKRKLAIHLQVSKNTVEAAYEQLLAEGYIESISRKGYFVCKIEQMVHVEDSEERIEEVLFQEKSYKFDFTQTGIDTNAFPFNMYRKIVNEVWQPYNNELLFLGHPQGEASLREEITNYLYESRGVRCSASQIVLGAGTQILVKLLFQLLKGSNYAVENPGYHRKMVVFEQGEEKVQMLSLDRDGICMADLENSDANVVFVTPSHQFPYGMIMPITRRTQLLQWAKKAKDRYIIEDDYDSEFRYSGRPIPALQGLDTEGKVIYMGTLSKALLPSLRMSYIVLPKNLIIKYQKEYLFYTQSVSRMDQEVIRKFLNEGYWEKHIHKMRVVYRKKRDRLVFEIEKYFSNRVEVIGEDSGLHILLQVHNGMREEELIQEAAKYSIKVYPVSTYYKDGTAPENVVLLGFAILSEEEIAKAIQLLNTAWFRKKVKKHPHT | not soluble
2 | MSAQYDLYETPDIKQTGEKQPLHPRIVPKGTIGQDEFLDRVHKFTGISRSLLAGAMQSFQNELKDLLANGWIVELGEIGYFSVSLQGPPVMHKKDVRAQSIKLKNINYLPTKQFKREVGYDMRLERTESLTRPKGNGRSEAECLALITAHLEKYPCMTRTDYCHMTGHDKKRALKELNAFIEKEILMRYGAGKQVVYAKKMI | not soluble
3 | MHPRETIRETFVALIKAAKTVAGDNVFNMRDFNLFIETMPAINISTQSETIEDGHDFGLRRRVLTVDVECYATCEDGARFVDQLAWEVEEIFYANPNLNNTVETCRLQNIAFAFGDNGSLALHGAILTFDVTHITNIPCPDEGKATVGVVEPLVGFKPETGMGNKDKYHKIEGDHVRATR | not soluble
4 | MELASNFDEFISTQSIEEGLDFGCNLLSSALRLQGDTDPAQAQVLLQELTQYLSLRYVGEHGLALEYLAGLGHQCSPDNYRHSQFWGQLKWIANEIGLSDTALNSLALPPGVLRSGGA | not soluble
5 | MSLKLVFYGAGNMAHAIFTGIVNSKVIDSNDIYLTNRSNEVALKEYAEKLGVNYSYDDEALLKAADYVFLGTKPYDFESLAERIKPFITDKNKFISIMAGLPISYIREKLEADNPIARIMPNTNAHVGHSVTGISFSSNFGPNSKDEVDELINAFGSAIEVPEDNLHQVTAITGSGPAFLYHVFEQYVTAGTRLGLEKAQVEESIRNLIIGTSKMIERSELSMEQLRKNITSKGGTTQAGLNALSQHDLESVFEDCLRAAVDRSVELSSQDEGHHHHHH | soluble
6 | MAHHHHHHMSDTRDVAQPRRGSFASRKARGETGGSKSSSSSSKNKEHSYDARRYHQNANTHGIHALRTFDCPVCDSKNTIRVTLNPRLGEGTVSCTYCCSLRPAPPDLPYPSVQRFVPSLENRADVFFRFNEQYAALLRQHKSERVGESVDPSSCLATVDNTRKRANKDDGESGGRARGPRGESRDEDGLFGDCALHMDTGLFDNAVDQHVTGTLAMLGSDDDGGSNTVADADPGNPKGVSTPSPPRPDGADMPESDFMNVAVIAGVDEAFAAHAADGVDGMGEADAEEVDVAAFFADSD | not soluble
7 | MLRYFRAFLPKEERFFDLFAQHTHTVVQGAQALQDMLRGGDETLVHCQRVSHFESEADNITREVLTAVRRTFITPFDRVDIKNLITSMDDAIDQMQQTAKAVILFEVREFEPPMREIGTLLVESANLVGRAVPLMQSIGPNLQMLTAMTEEITKLEGRVDDLHDIGLKELFLKHRNANTMDYIVGAEIYDHLEKVADRFDDVANEINSIVIEQVAAALEHHHHHH | soluble
8 | MGSDKIHHHHHHMELYAASYILPIASPPIPGGAVAVHDGCIVETGTLAELRSRHSGPVHDFPGCAILPGLVNAHTHLELTHFPSWKIRKGIDYSPRTYVDWIIQVIKIRRALSPQELELSVREGLRICLEAGTTAIGEILTDRSLIPLYADSGLRGRLLFEAIGHDPVRNAQLVEELDAAIASFSGGSFLPGISPHAPHTVAEHLHQDVYRLAYERNVPRVIHLAESREESDFFFDSSGKIAEFLYPHVRWESYLPAPRRTTATAWLDGLGVLNGTISAVHCVHLTPSDAEILAKRGVGVVLCPRSNDKLAVGRAPVVLLKRLGVPLALGTDSLASNDSLSLWDEMRYLLDTFPGIFTPTEALSMTTIGSARQLALADRTGSLDKGKHADFLVMKLPGRNGSGEALHEALIHSGEILQVFLAGNLVVSREAFS | not soluble
9 | MAITAKNAQLYGLDLELGLETGLAADVDNDSMSGLVLVELLSPYHQLETRFKLESQTALAFQAMADSAAKDGIKLAICSAYRPFDRQLAIWNAKASGKRVVLDINEQPVDITPLSESELVDLILLWSALPGASRHHWGTDIDVFDAEKIEVKSLRLVEAEYRDGGPCAQLHQWLVANAKDFGFYFPFQRGQSAVSAEPWHISYFPVSQILLPQFEVQALTQIIAHSDMLLKDAVLARLPELVAEYVHRIAQP | soluble
10 | MGGSHHHHHHGMASALKAHMVRQHSRRQDLLPQLEAPSSLTPSSELSSPGQSELTNMDLAALFSDTPANASGSAGGSDEALNSGILTIDVTSVSSSLGGNLPANNSSLGPMEPLVLVAHSDIPPSLDSPLVLGTAATVLQQGSFSVDDVQTVSAGALGCLVALPMKNLSDDPLALTSNSNLAAHITTPTSSSTPRENASVPELLAPIKVEPDSPSRPGAVGQQEGSHGLPQSTLPSPAEQHGAQDTELSAGTGNFYLESGGSARTDYRAIQLAKEKKQRGAGSNAGASQSTQRKIKEGKMSPPHFHASQNSWLCGSLVVPSGGRPGPAPAAGVQCGAQGVQVQLVQDDPSGEGVLPSARGPATFLPFLTVDLPVYVLQEVLPSSGGPAGPEATQFPGSTINLQDLQ | not soluble
11 | MNFLRKIVKNCKDEEIPKPGTPSAPPDDDDLWMPPPEYVPLTQIKGKENVRNFCINGEIKICSPNGYSFRILRHILKSFDNVYSGNRRLIGVVKVVIGLVLSASPVPEGMNWVYKLRRTLIFQWAESHGPLEGEELEYSQEITWDDEAEFVSLQIRVSAKQCHIQGRLWCINMNSKACQLWADMGLKTQQSQEDENTSLLLE | soluble
12 | MGSSHHHHHHSSGRENLYFQGHMKNLLDLSYEELVTEITNLGLERYRADQILDWVFDKKVNNFDEMTNLSKKHRALLKEHFSISFLKLLDKKVSRIDGTTKFLWELEDGNTIESVMLFHPDRITACISTQVGCPVKCIFCATGMSGFVRNLTTGEIVAQILSMEKEEKKKIGNVVYMGMGEPLLNYENTIKSIRILNHKKMGNIGIRRITISTVGIPDRIIQLAEEGLDVKLALSLHAPTNFKRDQLVPLNKKYSIEEILNAVKIYQRKTGNRVTIEYVLIRGINDEISDAKKLAEILRNMKVFVNLIPVNPTVEGLRRPSRERLLTFKRILLENGIEAEIRREKGTDIEAACGQLRLKRIKSRS | soluble
13 | AQSVPPGDINTQPSQKIVFNAPYDDKHTYHIKITNAGGRRIGWAIKTTNMRRLSVDPPCGVLDPKEKVLMAVSCDTFNAATERLNNDRITIEWTNTPDGAAKQFRREWFQGDGMVRRKNLPIEYNL | soluble
14 | GPMPQLTLDKTDIKILQVLQENGRLTNVELSERVALSPSPCLRRLKQLEDAGIVRQYAALLSPESVNLGLQAFIRVSIRKAKDAREDFAASVRKWPEVLSCFALTGETDYLLQAFFTDMNAFSHFVLDTLLSHHGVQDAQSSFVLKEIKHTTSLPLNHLLKE | soluble
15 | MGSDKIHHHHHHMHKTRYNALSVAFQISPRGPLLIKAGGISANPTLPDMQFVRTYHPYYGYTVYIPGSSLKGVVRGFVEKALRTLDDHTSWQWACPTFPDEDESCAKKLGKEENSATIYKNSCGACRLFGHTRLKGRVAFTDLLPVDEVKTEIRYGVAISRLSHAVAHGPFEMEVAVAGTFEGYLILENFELWQLGLLVLAFQGMNSGLLQIGFGKNRGFGEVAVQVQEARLDEVTSGMEIGLWRGLADFVSDEEKTRYGLSTTFTLNGMPDPLRTEPLGLYTRRIYDPKRWDEVAQRVTDKLGTT | not soluble
16 | MAPHGDGLSDIEEPEVDAQSEILRPISSVVFVIAMQAEALPLVNKFGLSETTDSPLGKGLPWVLYHGVHKDLRINVVCPGRDAALGIDSVGTVPASLITFASIQALKPDIIINAGTCGGFKVKGANIGDVFLVSDVVFHDRRIPIPMFDLYGVGLRQAFSTPNLLKELNLKIGRLSTGDSLDMSTQDETLIIANDATLKDMEGAAVAYVADLLKIPVVFLKAVTDLVDGDKPTAEEFLQNLTVVTAALEGTATKVINFINGRNLSDL | soluble
17 | MSQRVSYYEIAPEGMKIMMDMEKYTKQSSINRTTRELIKIRVSQMNGCAFCIDMHTSDARKMGETEQRIYCLHAWNECDFYSPEEKAALELSEHITLIPSKRVPDELYHRVREHYDEEQYVDLVLIINQINSWNRISIAMGNRAASK | soluble
18 | MSQLMQLKDVAESTRLGPLSGEVSAGEILHLVGPNGAGKSTLLARMAGLTSGEGSIRFGGAPLEAWATATLAQHRAYLAQQQNPPFAMPVWHYLTLHQPDKTRTGQLNEVADMLGLGDKLGRSVNQLSGGEWQRVRLAAVVLQIHPDANPVGQLLLLDEPMNSLDVAQQNALDRVLHHLCQAGIAIVMSSHDLNHTLRHAHKAWLLKRGKLIACGRREEVLTPSYLAQAYGLRFRRLDVEGHPMLISAT | not soluble
19 | MKIMIFICGEGLGHTSRCLALGKELLNAGHEIKFGAYGYSKELVEKTGYTAQEIPSEIKLVGKAGSLDLTGSIEATLKSAQLLGGPKLLKLLREFKPDVVVSDSYYLGTLAAMVLKLPVYLIINQSNMEEFFKNRGVPVRIIGKLTKKFYKEVFEKTDKILEHHHHHH | not soluble
20 | HIPEMGGQHYLGDSLDKDWRVTRDNQQFAFEYQDNEGQAQSKVLTLKVGDNLEEVATYINAQQSVVDASVTQDHQLQFFTSTLNAPEGITWKGNFADEMDIGSGELVTVDDLDMSTVGGAQLAIGVVDAAIKYVDSHRSEIGGFQNRVSGTIDNLNTINRSVSESKGRIRDTDFARESTVMVRSQVLQDATTALLAQAKQRPSSALGLLS | not soluble
21 | MRNFKKSDKLNNVSYDVRGPVLEEAERMQEEGIRILKLNTGNPAPFGFDAPNEIVRDMIVNVRDSEGYSDSKGIFSARKAIEQYCQLKKFPNVTINDIYTGNGVSELITMCMQGLLNNGDEVLVPMPDYPLWTASVSLAGGTPVHYICDEQAEWYPDIDDIKSKITSNTKAIVIINPNNPTGALYPKELLLEIVEVARQNDLIIYSDEIYDRLVMDGLVHVPIATLAPDLFVVTLNGLSKSHRVAGFRCGWMVLSGDKSRVKGYIEGLNMLASMRLCSNVLSQQIIQTALGGYQSVDGLLLPGGRIYEQREFIYNAINDIPGLSAVKPKAAFYIFPKIDTAKFDIYDDEKFVLDFLHKHHILLVHGGGFNWQQPDHFRIVYLPKMEDLKTTADKMREFLSTYKQK | not soluble
22 | KGKSFIWIKRQLDPKVAEEVKALGLENFVFEKELKRHYPMGNLFAHVIGFTDIDGKGQEGLELSLEDSLHGEDGAEVVLRDRQGNIVDSLDSPRNKAPKNGKDIILSLD | not soluble
23 | MAGDPMLKGRQTWEFENRPVILSSAATAGPFEANGPLADDFDILFEDMWLGEDSFEKAQKVLIEEAAKTAIEKAGIQNDDIQFVFAGDLLNQMTSTSFACRSLCIPYFGLFGACSTSMEGLALAAFVINHSGANYVLTGSTSHNAAIEKQFRYPTEYGAQKPPTAQWTATAAGVGVVAKVGSGPVVTSATIGKVVDMGLSDPFNMGEAMAPAAADTIEMHFQERGVGPDYYDLIATGDLGKIGLPIVKEMLEQKGYSFNDGQLNDCGLMIYRDGQPVLAGGSGSGCSASVTYGHLLNRMKKGEINRMLIVATGALLSPMSYQQNETIPCIAHAVSIEAGGALALEHHHHHH | not soluble
24 | SNAMKKKDMNKQVKIQDAVAAIILAEGPAGVSTTKVAKRVGIAQSNVYLYFKNKQALIDSVYARETNRILSTTDLDRLSDSTIDVTTRIRLYVQQVYDYSLANPDSLTIIQQIKALNGQGMTISAADADPNNIVANLLTAAIDAKVIKQLPVSLHMGVVFSTIHTHTTNISKGRYAQDQYTFGDIFQMIWDAMKQD | soluble
